In patent US20220177835A1, “METHODS OF GENERATING AND ISOLATING MIDBRAIN DOPAMINE NEURONS” (MEMORIAL SLOAN-KETTERING CANCER CENTER, priority 2019, published 2022):

Assays:
rodent GSK3β homologs = conditions: cited from earlier work
[1] = test system: stem-cell-derived midbrain DA neurons and precursors; assay: Marker expression in stem-cell-derived mDA differentiation under Wnt-Boost protocol with added FGF; format: cell-based, human
From the text: Midbrain DA neurons and precursors thereof were derived from stem cells under a Wnt-Boost protocol previously disclosed (the “7.5 M bump protocol (modification of GMP V2B)” protocol disclosed in International Publication No. WO 2016/196661, which is incorporated by reference in its entirety), which is referred to as “Wnt-Boost protocol” or “Boost protocol” hereinafter. It was discovered that EN1 expression was decreased starting from day 11 of the differentiation with Wnt-Boost protocol (see FIG. 1). Maintaining EN1 expression in the differentiated cells is important to generate mature and functional midbrain DA neurons. Thus, to maintain EN1 expression, the present example tested adding FGF8b treatment to the Wnt-Boost protocol at a late time of differentiation (see FIG. 2). Cells were contacted with FGF8b from day 9 to day 16, from day 10 to day 16, from day 11 to day 16, from day 12 to day 16, from day 13 to day 16, from day 14 to day 16, or from day 15 to day 16, in addition to the Wnt-Boost protocol, were tested. […] EN1 positive cells also expressed FOXA2 and LMX1A. […] SIX1 immuno-staining of the cells on day 30 of differentiation confirmed the mRNA results (see FIG. 5).
FGF8b, FGF17, and FGF18 were tested by being added them to the cell culture from day 12 to day 16 at a concentration of 100 ng/ml under the WNT-Boost protocol.

[2] = test system: grafted differentiated cells in mouse; assay: In vivo graft of differentiated cells (WNT-boost vs WNT-boost+FGF18) into intact mouse
From the text: The in vivo survival of differentiated cells generated from WNT-boost+FGF18 protocol was examined. Cells generated from WNT-boost and WNT-boost+FGF18 protocols were grafted into intact mouse […].

[3] = test system: NURR1:GFP hPSC derived mDAs; assay: mRNA expression in NURR1:GFP sorted mDAs (WNT-Boost vs WNT-Boost+FGF18); format: cell-based, human; conditions: WNT-Boost+FGF18 (day 12-day 16) vs WNT-Boost
Procedure: NURR1:GFP hPSCs were then cultured under WNT-Boost and WNT-boost+FGF18 (day 12-day 16) protocols. NURR1:GFP positive cells were isolated on day 25 of differentiation followed by continuous culturing until day 40. On day 40 of differentiation, these midbrain DA neurons expressed high TH along with FOXA2 (see FIG. 12).
(§1) These sorted cells were transplanted to immuno-deficient mice.

[4] = test system: grafted NURR1:GFP sorted mDAs; assay: Transplantation of NURR1:GFP sorted mDAs to immuno-deficient mice; format: in vivo, mouse
From the text: as §1

[5] = test system: MEL1 hPSC derived CD49e weak mDAs; assay: mRNA expression in CD49e sorted cells (WNT-Boost vs WNT-boost+FGF18); format: cell-based, human; conditions: WNT-boost+FGF18 (day 12-day 16) vs WNT-Boost
Procedure: CD49e marker was tested in another hPSC line MEL1 for purifying midbrain DA neuron. Substantially pure mDA morphology was discovered in cells sorted with CD49e (Negative and/or weak expression) on day 25 of differentiation and continuously cultured for another 15 days (day 40 of differentiation) under the WNT-boost protocol and the WNT-boost+FGF18 (day 12-day 16) protocol (see FIGS. 19-20). These sorted mDAs had high TH immune-staining (see FIG. 21).

| Molecule | IC50 values against rodent GSK3β homologs (rodent GSK3β homologs) | mRNA expression level of SMA ([1]; day 16 of differentiation, 100 ng/ml from day 12 to day 16, compared with FGF8b) | EN1 protein expression (immunostaining) ([1]; day 16 of differentiation, FGF added from day 9-15 to day 16 to Wnt-Boost protocol) | EN1 expression at the mature stage of differentiation ([1]; day 27 and day 40 (FIG. 8)) | expression levels of SMA1 and SIX1 ([1]; mature stage, FGF18 vs FGF8b treated cells) | expression level of PITX2 ([1]; mature stage, compared to cells differentiated by the WNT-Boost protocol) | striatal innervation with fibers ([2]; 1 month post grafting, WNT-boost+FGF18 vs WNT-boost) | maintenance of EN1 expression in vivo ([2]; cells from WNT-boost+FGF18 protocol vs WNT-boost protocol, grafted) | mRNA expression level of EN1 [3] | neurite outgrowth from grafted region ([4]; FGF18 treated cells (WNT-Boost+FGF18 protocol) vs WNT-Boost) | cell survival of graft ([4]; sorted mDAs from WNT-Boost+FGF18 (day 12-day 16) protocol) | mRNA expression level of EN1 [5] | mRNA expression level of PITX2 [5] |
| --- | --- | --- | --- | --- | --- | --- | --- | --- | --- | --- | --- | --- | --- |
| Cc1c[nH]c(-c2cnc(NCCNc3ccc(C#N)cn3)nc2-c2ccc(Cl)cc2Cl)n1 [CHIR99021, 6-(2-(4-(2,4-dichlorophenyl)-5-(4-methyl-1H-imidazol-2-yl)pyrimidin-2-ylamino)ethylamino)nicotinonitrile] | nanomolar |  |  |  |  |  |  |  |  |  |  |  |  |
| FGF18: FGF activator; member of the FGF8 subfamily of secreted signaling proteins (protein, UniProt O76093 28-207, looked up) Fibroblast growth factor 18: EENVDFRIHVENQTRARDDVSRKQLRLYQLYSRTSGKHIQVLGRRISARGEDGDKYAQLLVETDTFGSQVRIKGKETEFYLCMNRKGKLVGKPDGTSKECVFIEKVLENNYTALMSAKYSGWYVGFTKKGRPRKGPKTRENQQDVHFMKRYPKGQPELQKPFKYTTVTKRSRRIRPTHPA |  | reduced mRNA expression level of SMA | highly maintained in a FGF18 contacting duration dependent manner | still highly maintained | less expression levels of SMA1 and SIX1 than FGF8b treated cells | reduced expression level of PITX2 | better striatal innervation | improved maintenance of EN1 expression in vivo | higher expression level of EN1 | better neurite outgrowth from grafted region | excellent cell survival | higher expression level of EN1 | lower expression level of PITX2 |
